Test results published in patent US20240016952A1 (published 2024).
Changes are numbered by the printed parent chain. Names and notes keep the numbering of the source.

T1: cynomolgus monkey transferrin receptor 1 (cTfR1) (cynomolgus monkey (Macaca fascicularis), UniProt Q5RDH6 89-760 (Pongo abelii entry), limits assumed)
T1 construct: Recombinant cynomolgus TfR1; also called cyTfR1; cyno TfR1
T1 chain: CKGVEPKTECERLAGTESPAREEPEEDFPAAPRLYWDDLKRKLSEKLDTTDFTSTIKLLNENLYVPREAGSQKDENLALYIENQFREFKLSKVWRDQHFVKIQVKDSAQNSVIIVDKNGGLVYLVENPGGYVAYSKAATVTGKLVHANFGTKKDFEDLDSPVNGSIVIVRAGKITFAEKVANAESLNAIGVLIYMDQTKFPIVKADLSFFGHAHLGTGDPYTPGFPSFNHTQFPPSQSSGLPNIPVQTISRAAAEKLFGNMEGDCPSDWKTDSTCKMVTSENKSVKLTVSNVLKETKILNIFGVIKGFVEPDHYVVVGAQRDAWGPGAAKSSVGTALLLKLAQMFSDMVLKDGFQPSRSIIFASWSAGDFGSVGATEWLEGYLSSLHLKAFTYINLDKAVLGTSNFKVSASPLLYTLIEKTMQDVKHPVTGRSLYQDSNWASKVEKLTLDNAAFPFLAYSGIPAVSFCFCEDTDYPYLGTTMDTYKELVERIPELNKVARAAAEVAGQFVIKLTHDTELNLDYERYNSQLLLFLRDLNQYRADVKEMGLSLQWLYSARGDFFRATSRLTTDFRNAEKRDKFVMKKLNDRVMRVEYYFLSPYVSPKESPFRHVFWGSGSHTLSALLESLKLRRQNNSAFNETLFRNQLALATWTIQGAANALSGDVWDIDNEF

B1: 5-H12 mouse monoclonal anti-TfR1 antibody (antibody, V domains shown)
VH: QIQLQQSGPELVRPGASVKISCKASGYSFTDYCINWVNQRPGQGLEWIGWIYPGSGNTRYSERFKGKATLTVDTSSNTAYMQLSSLTSEDSAVYFCAREDYYPYHGMDYWGQGTSVTVSS
VL: DIVLTQSPTSLAVSLGQRATISCRASESVDGYDNSFMHWYQQKPGQPPKLLIFRASNLESGIPARFSGSGSRTDFTLTINPVEAADVATYYCQQSSEDPWTFGGGTKLEIK
notes: Mouse mAb (IgG)
B2: humanized anti-TfR Fab 3M12 VH4/Vk3 (Fab, V domains shown)
VH: QVQLQESGPGLVKPSQTLSLTCTVTGYSITSGYYWNWIRQPPGKGLEWIGYITFDGANNYNPSLKNRVSISRDTSKNQFSLKLSSVTAEDTATYYCTRSSYDYDVLDYWGQGTTVTVSS
VL: DIQMTQSPSSLSASVGDRVTITCRASQDISNFLNWYQQKPGQPVKLLIYYTSRLHSGVPSRFSGSGSGTDFTLTISSLQPEDFATYYCQQGHTLPYTFGQGTKLEIKR
B3: 15G11 (control anti-TfR1 antibody) (antibody, V domains shown)
VH: QVQLQQPGAELVKPGASVKLSCKASGYTFTSYWMHWVKQRPGQGLEWIGEINPTNGRTNYIEKFKSKATLTVDKSSSTAYMQLSSLTSEDSAVYYCARGTRAYHYWGQGTSVTVSS
VL: DIQMTQSPASLSVSVGETVTITCRASDNLYSNLAWYQQKQGKSPQLLVYDATNLADGVPSRFSGSGSGTQYSLKINSLQSEDFGTYYCQHFWGTPLTFGAGTKLELK
B4: 3-A4 mouse monoclonal anti-TfR1 antibody (antibody, V domains shown)
VH: EVQLQQSGAELVRPGASVKLSCTASGFNIKDDYMYWVKQRPEQGLEWIGWIDPENGDTEYASKFQDKATVTADTSSNTAYLQLSSLTSEDTAVYYCTLWLRRGLDYWGQGTSVTVSS
VL: DIVMTQAAPSVPVTPGESVSISCRSSKSLLHSNGYTYLFWFLQRPGQSPQLLIYRMSNLASGVPDRFSGSGSGTAFTLRISRVEAEDVGVYYCMQHLEYPFTFGGGTKLEIK
notes: Mouse mAb (IgG); also called 3-A04
B5: humanized anti-TfR Fab 5H12 VH5 (C33D)/Vk4 conjugated to DMPK-targeting oligonucleotide ASO300 (Fab, V domains shown)
VH: QVQLVQSGAEVKKPGASVKVSCKASGYSFTDYDINWVRQAPGQGLEWMGWIYPGSGNTRYSERFKGRVTITRDTSASTAYMELSSLRSEDTAVYYCAREDYYPYHGMDYWGQGTLVTVSS
VL: DIVMTQSPDSLAVSLGERATINCRASESVDGYDNSFMHWYQQKPGQPPKLLIFRASNLESGVPDRFSGSGSGTDFTLTISSLQAEDVAVYYCQQSSEDPWTFGQGTKLEIKR
modifications: Fab conjugated to oligonucleotide ASO300; chain and residue not stated
notes: Fab-oligonucleotide conjugate; The protein chains are those of the unconjugated Fab
B6: humanized anti-TfR Fab 5H12 VH5 (C33Y)/Vk4 conjugated to DMPK-targeting oligonucleotide ASO300 (Fab, V domains shown)
VH: B5 VH with D33Y
VL: B5 VL
modifications: Fab conjugated to oligonucleotide ASO300; chain and residue not stated
notes: Fab-oligonucleotide conjugate; also called 5H12 (VH4-C33Y/Vk4) conjugate
B7: humanized anti-TfR Fab 3A4 VH3 (N54S)/Vk4 (Fab, V domains shown)
VH: EVQLVQSGSELKKPGASVKVSCTASGFNIKDDYMYWVRQPPGKGLEWIGWIDPESGDTEYASKFQDRVTVTADTSTNTAYMELSSLRSEDTAVYYCTLWLRRGLDYWGQGTLVTVSS
VL: DIVMTQSPLSLPVTPGEPASISCRSSKSLLHSNGYTYLFWFQQRPGQSPRLLIYRMSNLASGVPDRFSGSGSGTDFTLKISRVEAEDVGVYYCMQHLEYPFTFGGGTKVEIKR
B8: humanized anti-TfR Fab 3A4 VH3/Vk4 (Fab, V domains shown)
VH: B7 VH with S55N
VL: B7 VL
B9: 3-M12 mouse monoclonal anti-TfR1 antibody (antibody, V domains shown)
VH: DVQLQESGPGLVKPSQSLSLTCSVTGYSITSGYYWNWIRQFPGNKLEWMGYITFDGANNYNPSLKNRISITRDTSKNQFFLKLTSVTTEDTATYYCTRSSYDYDVLDYWGQGTTLTVSS
VL: DIQMTQTTSSLSASLGDRVTISCRASQDISNFLNWYQQRPDGTVKLLIYYTSRLHSGVPSRFSGSGSGTDFSLTVSNLEQEDIATYFCQQGHTLPYTFGGGTKLEIK
notes: Mouse mAb (IgG)

Assays:
[1] = target: T1, cynomolgus monkey transferrin receptor …; experiment: average KD, antibody alone; method not given
[2] = target: T1, cynomolgus monkey transferrin receptor …; experiment: surface plasmon resonance
[3] = target: T1, cynomolgus monkey transferrin receptor …; experiment: ELISA, cyno TfR1, Fab after 9 days at 40 C
[4] = target: T1, cynomolgus monkey transferrin receptor …; experiment: ELISA on plate-coated cyno TfR1, unconjugated Fab
[5] = target: T1, cynomolgus monkey transferrin receptor …; experiment: ELISA, cyno TfR1, Fab, day 0 of thermal stability test
[6] = target: T2, human transferrin receptor 1 (hTfR1) (human, UniProt P02786 89-760); experiment: average KD, antibody alone; method not given
T2 construct: Recombinant human TfR1; also called huTfR1; Human TfR1

[7] = target: T2, human transferrin receptor 1 (hTfR1); experiment: Carterra LSA SPR, IgG captured on anti-IgG chip, hTfR1 injected, 25 C, 1:1 fit
[8] = target: T1, cynomolgus monkey transferrin receptor …; experiment: ELISA, cyno TfR1, Fab-ASO300 conjugate
[9] = target: T1, cynomolgus monkey transferrin receptor …; experiment: ELISA on plate-coated cyno TfR1, Fab-ASO300 conjugate
[10] = target: T2, human transferrin receptor 1 (hTfR1); experiment: ELISA on plate-coated human TfR1, Fab-ASO300 conjugate
[11] = target: T3, TfR1 (species not stated; Biacore analyses of Table 14 and Table 16) (Homo sapiens (Human), UniProt P02786 89-760); experiment: Biacore kinetic analysis; design: unit not given here
T3 construct: also called target antigen

Binder | Kd [1] | Binding affinity cyno TfR1 d 9 [3] | Fab binding affinity ELISA [4] | Binding affinity cyno TfR1 d 0 [5] | further results
B1 | 12 nM | – | – | – | –
B2 | – | 16.4 nM | 2.2 nM | 2.2 nM | Kd [2]: 5.18 nM; koff [2]: 0.000476 s⁻¹; kon [2]: 91900 M⁻¹ s⁻¹
B3 | 1 nM | – | – | – | Kd [6]: 0.8 nM; Kd [7]: 0.283 nM
B4 | 2.32 nM | – | – | – | –
B5 | – | – | – | – | DMPK oligo conjugate binding to cyno TfR1 [8]: 10.2 nM; Conjugate binding affinity ELISA [9]: 10.2 nM; Conjugate binding affinity ELISA [10]: 110 nM
B6 | – | – | – | – | DMPK oligo conjugate binding to cyno TfR1 [8]: 13.9 nM; Conjugate binding affinity ELISA [9]: 3.3 nM; Conjugate binding affinity ELISA [10]: 23.7 nM
B7 | – | 248 nM | 398 nM | 398 nM | koff [11]: 65.6
B8 | – | 878 nM | 122 nM | 122 nM | koff [11]: 115
B9 | 5.18 nM | – | – | – | –
